The target of the experiment is human Replication Protein A (RPA) complex (human) (UniProt P27694).

From paper PMC9169624, “Human HELB is a processive motor protein that catalyzes RPA clearance from single-stranded DNA” (Proceedings of the National Academy of Sciences of the …, 2022) come the findings set out here.

Sequence of Human DNA helicase B (HELB) (Q8NG08 whole entry): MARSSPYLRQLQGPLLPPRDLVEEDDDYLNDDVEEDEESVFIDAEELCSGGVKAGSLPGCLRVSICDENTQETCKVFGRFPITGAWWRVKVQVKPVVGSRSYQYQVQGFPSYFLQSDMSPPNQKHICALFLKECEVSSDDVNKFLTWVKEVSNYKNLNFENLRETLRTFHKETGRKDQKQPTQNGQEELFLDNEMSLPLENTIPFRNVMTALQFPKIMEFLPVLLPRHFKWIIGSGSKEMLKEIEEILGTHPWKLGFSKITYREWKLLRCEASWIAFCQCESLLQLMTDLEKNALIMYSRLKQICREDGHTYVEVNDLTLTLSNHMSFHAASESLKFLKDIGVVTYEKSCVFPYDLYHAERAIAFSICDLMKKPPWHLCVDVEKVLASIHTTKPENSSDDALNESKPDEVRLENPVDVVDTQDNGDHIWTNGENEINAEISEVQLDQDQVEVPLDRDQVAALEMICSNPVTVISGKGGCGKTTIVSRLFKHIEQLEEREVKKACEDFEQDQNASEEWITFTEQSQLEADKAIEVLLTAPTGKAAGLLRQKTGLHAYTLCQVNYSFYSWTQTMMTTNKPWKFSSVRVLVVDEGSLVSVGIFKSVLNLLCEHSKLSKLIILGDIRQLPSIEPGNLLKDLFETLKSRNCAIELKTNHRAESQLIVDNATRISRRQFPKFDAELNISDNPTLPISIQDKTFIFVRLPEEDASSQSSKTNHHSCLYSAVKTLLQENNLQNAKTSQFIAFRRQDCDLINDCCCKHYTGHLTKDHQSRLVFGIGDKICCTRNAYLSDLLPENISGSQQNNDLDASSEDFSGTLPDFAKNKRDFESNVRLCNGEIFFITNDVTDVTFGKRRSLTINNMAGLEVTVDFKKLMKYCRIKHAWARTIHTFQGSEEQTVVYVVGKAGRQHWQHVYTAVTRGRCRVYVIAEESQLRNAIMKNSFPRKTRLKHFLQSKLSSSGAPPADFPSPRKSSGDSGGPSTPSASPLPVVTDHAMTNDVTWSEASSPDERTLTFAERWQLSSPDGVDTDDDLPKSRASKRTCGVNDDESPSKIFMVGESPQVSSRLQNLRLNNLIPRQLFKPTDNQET
Sequence of human Replication Protein A (RPA) complex (human) (P27694 whole entry, chain 1 of 3): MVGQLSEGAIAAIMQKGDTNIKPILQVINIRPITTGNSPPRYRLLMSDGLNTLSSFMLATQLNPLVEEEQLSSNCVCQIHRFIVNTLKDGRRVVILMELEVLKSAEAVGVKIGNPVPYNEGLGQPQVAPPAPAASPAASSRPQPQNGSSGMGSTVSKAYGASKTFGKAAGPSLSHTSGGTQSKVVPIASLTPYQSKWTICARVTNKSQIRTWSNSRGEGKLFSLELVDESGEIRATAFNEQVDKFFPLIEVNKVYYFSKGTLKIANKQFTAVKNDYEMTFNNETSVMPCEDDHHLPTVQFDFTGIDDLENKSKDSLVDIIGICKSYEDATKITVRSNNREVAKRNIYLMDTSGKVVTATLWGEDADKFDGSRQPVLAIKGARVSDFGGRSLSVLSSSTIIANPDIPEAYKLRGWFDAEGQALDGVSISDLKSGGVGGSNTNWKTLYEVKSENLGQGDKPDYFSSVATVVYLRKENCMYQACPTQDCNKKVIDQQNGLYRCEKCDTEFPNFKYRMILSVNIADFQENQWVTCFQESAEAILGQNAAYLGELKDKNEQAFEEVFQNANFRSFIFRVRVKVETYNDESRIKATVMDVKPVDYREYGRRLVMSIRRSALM
Sequence of human Replication Protein A (RPA) complex (human) (P15927 whole entry, chain 2 of 3, further chain): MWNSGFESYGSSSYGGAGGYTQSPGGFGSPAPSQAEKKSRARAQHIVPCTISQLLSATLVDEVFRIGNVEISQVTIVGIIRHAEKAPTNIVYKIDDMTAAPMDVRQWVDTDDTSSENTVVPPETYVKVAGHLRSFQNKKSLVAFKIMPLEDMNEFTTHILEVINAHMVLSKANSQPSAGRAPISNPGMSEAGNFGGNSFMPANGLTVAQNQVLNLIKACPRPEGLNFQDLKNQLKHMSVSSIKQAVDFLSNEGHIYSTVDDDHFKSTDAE
Sequence of human Replication Protein A (RPA) complex (human) (P35244 whole entry, chain 3 of 3, further chain): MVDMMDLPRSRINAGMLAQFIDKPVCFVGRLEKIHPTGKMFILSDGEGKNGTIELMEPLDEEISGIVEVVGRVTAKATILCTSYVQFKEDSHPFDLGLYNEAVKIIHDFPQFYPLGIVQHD

“Human DNA helicase B (HELB) (from UniProt Q8NG08 1-1087) (enzyme)” gave an observed rate of ATP hydrolysis by HELB at low φX174 ssDNA (0.1 × KDNA), RPA titrated from one RPA per 200 nt to one RPA per 20 nt of 8 fold.
